In data set [1] the target is T1, ORF57 8-120 (Herpesvirus saimiri, UniProt P13199 8-120). Briefly: NMR (HSQC titration, saturation transfer); aa64-120 broadened beyond detection at 1:1; Fluorescence: 20 mM phosphate pH 6.2, 50 mM NaCl, 50 mM L-Arg+L-Glu, 5 mM EDTA, 1 mM TCEP (temperature not stated); NMR: 20 mM phosphate pH 6.2, 50 mM NaCl, 50. As to conditions: protein: recombinant.
The target in data set [2] is His-ORF57 8-120 WT (Herpesvirus saimiri, UniProt P13199 8-120). The experiment in a line: UV cross-linking; Fluorescence: 20 mM phosphate pH 6.2, 50 mM NaCl, 50 mM L-Arg+L-Glu, 5 mM EDTA, 1 mM TCEP (temperature not stated); NMR: 20 mM phosphate pH 6.2, 50 mM NaCl, 50. As to conditions: protein: recombinant; tags: His6; label: radioactive end label.
Chain of His-ORF57 8-120 WT (P13199 8-120): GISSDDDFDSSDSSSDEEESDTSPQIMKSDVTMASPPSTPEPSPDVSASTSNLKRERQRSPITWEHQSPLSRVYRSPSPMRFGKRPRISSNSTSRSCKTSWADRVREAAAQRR
In data set [3] the target is T1, ORF57 8-120. Briefly: intrinsic Trp fluorescence titration; Fluorescence: 20 mM phosphate pH 6.2, 50 mM NaCl, 50 mM L-Arg+L-Glu, 5 mM EDTA, 1 mM TCEP (temperature not stated); NMR: 20 mM phosphate pH 6.2, 50 mM NaCl, 50. As to conditions: protein: recombinant.
Data set [4] concerns the target ORF57 8-120;ALYREF 1-155 (REF2-I) (Herpesvirus saimiri;mouse, UniProt P13199;Q9JJW6 8-120;1-155, |). Briefly: intrinsic Trp fluorescence titration; RNA into preformed 1:1 ORF57-ALYREF complex, 10 uM; apparent macroscopic Kd; Fluorescence: 20 mM phosphate pH 6.2, 50 mM NaCl, 50 mM L-Arg+L-Glu, 5 mM EDTA, 1 mM TCEP (temperature not stated); NMR: 20 mM phosphate pH 6.2, 50 mM NaCl, 50. To be noted: protein: recombinant;recombinant; tags: ;; copies: 1;1.

Data on 4 molecules can be found in PMC3923783, “Competitive and Cooperative Interactions Mediate RNA Transfer from Herpesvirus Saimiri ORF57 to the Mammalian Export Adaptor ALYREF”.

T1 sequence (P13199 8-120): as above
Chain of ORF57 8-120;ALYREF 1-155 (REF2-I) (P13199 8-120, chain 1 of 2): as the sequence (P13199 8-120) above
Chain of ORF57 8-120;ALYREF 1-155 (REF2-I) (Q9JJW6 1-155, chain 2 of 2): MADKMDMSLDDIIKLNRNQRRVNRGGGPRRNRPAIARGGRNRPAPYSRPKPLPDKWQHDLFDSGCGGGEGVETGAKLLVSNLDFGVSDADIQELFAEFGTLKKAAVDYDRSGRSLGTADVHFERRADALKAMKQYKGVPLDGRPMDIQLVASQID

B1: 7merS (ssRNA)
RNA: GAAGAGG
In the case of B1, in data set [1], the binding result is reported as “binds”.

B2: 7merS end-labeled (ssRNA)
RNA: GAAGAGG
Regarding B2, the binding result in data set [2] was “binds”.

B3: 7merN (ssRNA)
RNA: CAGUCGC
Regarding B3, the Kd in data set [3] worked out at 38.8 ± 0.6 µM.

B4: 14merS (ssRNA)
RNA: CAGUCGCGAAGAGG
Regarding B4, the Kd in data set [3] is 7.57 ± 0.06 µM; in data set [4], 1.55 ± 0.24 µM.
